From PMC4230899, “Diverse allosteric and catalytic functions of tetrameric D-lactate dehydrogenases from three Gram-negative bacteria” (AMB Express, 2014)

Legend:
[1] = molecular target: NAD-dependent D-lactate dehydrogenase from Pseudomonas aeruginosa (Pseudomonas aeruginosa JCM8532 (=PAO1)); test: SEC; Superdex 200 (Hiload 16/60), 1 ml of 1 mg/ml protein, 50 mM sodium acetate pH 5.0 with 150 mM NaCl; calibrated with standard proteins; apparent molecular weight against theoretical subunit weight
FNLDH = molecular target: T1, FNLDH (Fusobacterium nucleatum, UniProt Q8RG11); test: NADH absorbance at […] nm, pyruvate reduction, nonlinear regression; assay type: biochemical
T1 construct: gene FN0511
T1 sequence (Q8RG11 1-335): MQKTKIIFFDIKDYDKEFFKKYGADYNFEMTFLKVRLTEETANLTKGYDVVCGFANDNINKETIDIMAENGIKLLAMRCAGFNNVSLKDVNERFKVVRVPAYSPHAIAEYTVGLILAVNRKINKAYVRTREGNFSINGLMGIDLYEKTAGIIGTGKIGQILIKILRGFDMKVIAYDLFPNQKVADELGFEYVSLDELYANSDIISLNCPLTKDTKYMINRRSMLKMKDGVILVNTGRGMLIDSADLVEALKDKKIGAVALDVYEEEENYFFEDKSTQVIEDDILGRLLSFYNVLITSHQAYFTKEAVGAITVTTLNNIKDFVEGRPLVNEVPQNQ

PALDH = molecular target: T2, PALDH (Pseudomonas aeruginosa, UniProt Q9I530); test: as above; assay type: biochemical
T2 construct: gene ldhA
T2 sequence (Q9I530 1-329): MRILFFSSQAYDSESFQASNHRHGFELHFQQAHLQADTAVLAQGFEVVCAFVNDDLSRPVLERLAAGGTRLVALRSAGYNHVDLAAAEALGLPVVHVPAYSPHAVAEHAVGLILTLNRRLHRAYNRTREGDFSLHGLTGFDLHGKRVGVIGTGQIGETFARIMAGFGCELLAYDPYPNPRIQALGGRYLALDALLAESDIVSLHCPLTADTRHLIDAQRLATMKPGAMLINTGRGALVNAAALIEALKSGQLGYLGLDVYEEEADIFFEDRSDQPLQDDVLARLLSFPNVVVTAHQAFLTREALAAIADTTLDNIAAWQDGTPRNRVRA

ECLDH [2] = molecular target: T3, ECLDH (Escherichia coli, UniProt P52643); test: as above; assay type: biochemical
T3 construct: gene ldhA
T3 sequence (P52643 1-329): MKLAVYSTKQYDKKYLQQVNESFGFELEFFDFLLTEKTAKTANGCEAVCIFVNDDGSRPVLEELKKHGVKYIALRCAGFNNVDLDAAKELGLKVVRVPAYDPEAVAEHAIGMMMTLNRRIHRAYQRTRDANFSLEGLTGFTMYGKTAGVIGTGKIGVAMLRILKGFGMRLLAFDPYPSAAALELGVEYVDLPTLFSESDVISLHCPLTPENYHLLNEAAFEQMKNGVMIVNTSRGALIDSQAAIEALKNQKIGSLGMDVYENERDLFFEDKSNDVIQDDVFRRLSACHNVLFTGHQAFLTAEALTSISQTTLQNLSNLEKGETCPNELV

ECLDH [3] = molecular target: T3, ECLDH; test: NADH absorbance at […] nm, activation of pyruvate reduction, Hill fit; assay type: biochemical; conditions: slight activator, half-saturation for activation; 7.5 mM pyruvate, 0.1 mM NADH; 50 mM Bicine-NaOH pH 8.0; 30 °C; read-out: S 0.5
[4] = molecular target: the molecule itself; test: SEC; Superdex 200 (Hiload 16/60), 1 ml of 1 mg/ml protein, 50 mM HEPES-NaOH pH 8.0 with 150 mM NaCl; calibrated with standard proteins; apparent molecular weight against theoretical subunit weight
purified protein [5] = substrate: CCCC(=O)C(=O)O; test: purified protein; assay type: biochemical, Fusobacterium nucleatum; conditions: 0.1 mM NADH, pH 7.0, 30 °C
purified protein [6] = substrate: CC(=O)C(=O)O; test: purified protein; assay type: biochemical, Fusobacterium nucleatum; conditions: 0.1 mM NADH, pH 7.0, 30 °C, no effector
purified protein [7] = substrate: O=C(O)CC(=O)C(=O)O; test: purified protein; assay type: biochemical, Fusobacterium nucleatum; conditions: 0.1 mM NADH, pH 7.0, 30 °C, fit with substrate inhibition
purified protein [8] = substrate: NC(=O)C1=CN([C@@H]2O[C@H](COP(=O)(O)OP(=O)(O)OC[C@H]3O[C@@H](n4cnc5c(N)ncnc54)[C@H](O)[C@@H]3O)[C@@H](O)[C@H]2O)C=CC1; test: purified protein; assay type: biochemical, Fusobacterium nucleatum; conditions: saturating pyruvate, pH 7.0, 30 °C, no effector, apparent, varied: cofactor
purified protein [9] = substrate: CCC(=O)C(=O)O; test: purified protein; assay type: biochemical, Fusobacterium nucleatum; conditions: 0.1 mM NADH, pH 7.0, 30 °C
purified protein [10] = substrate: CC(=O)C(=O)O; test: purified protein; assay type: biochemical, Escherichia coli; conditions: 0.1 mM NADH, pH 7.0, 30 °C, no effector, Hill fit
purified protein [11] = substrate: NC(=O)C1=CN([C@@H]2O[C@H](COP(=O)(O)OP(=O)(O)OC[C@H]3O[C@@H](n4cnc5c(N)ncnc54)[C@H](O)[C@@H]3O)[C@@H](O)[C@H]2O)C=CC1; test: purified protein; assay type: biochemical, Escherichia coli; conditions: saturating pyruvate, pH 7.0, 30 °C, no effector, apparent, varied: cofactor
purified protein [12] = substrate: O=CC(=O)O; test: purified protein; assay type: biochemical, Escherichia coli; conditions: 0.1 mM NADH, pH 7.0, 30 °C, Hill fit
purified protein [13] = substrate: O=C(O)C(=O)CO; test: purified protein; assay type: biochemical, Escherichia coli; conditions: 0.1 mM NADH, pH 7.0, 30 °C
purified protein [14] = substrate: CC(=O)C(=O)O; test: purified protein; assay type: biochemical, Pseudomonas aeruginosa; conditions: 0.1 mM NADH, pH 7.0, 30 °C, no effector, fit with substrate inhibition
purified protein [15] = substrate: O=C(O)CC(=O)C(=O)O; test: purified protein; assay type: biochemical, Pseudomonas aeruginosa; conditions: 0.1 mM NADH, pH 7.0, 30 °C
purified protein [16] = substrate: NC(=O)C1=CN([C@@H]2O[C@H](COP(=O)(O)OP(=O)(O)OC[C@H]3O[C@@H](n4cnc5c(N)ncnc54)[C@H](O)[C@@H]3O)[C@@H](O)[C@H]2O)C=CC1; test: purified protein; assay type: biochemical, Pseudomonas aeruginosa; conditions: saturating pyruvate, pH 7.0, 30 °C, no effector, apparent, varied: cofactor
purified protein [17] = substrate: CCC(=O)C(=O)O; test: purified protein; assay type: biochemical, Pseudomonas aeruginosa; conditions: 0.1 mM NADH, pH 7.0, 30 °C
purified protein [18] = substrate: O=C(O)C(=O)CO; test: purified protein; assay type: biochemical, Pseudomonas aeruginosa; conditions: 0.1 mM NADH, pH 7.0, 30 °C, fit with substrate inhibition

NAD-dependent D-lactate dehydrogenase from Pseudomonas aeruginosa (enzyme)
stoichiometry N [1]: 3

NC(=O)C(=O)O [Oxamate]
Ki (FNLDH): 9.4 ± 0.2 mM
Ki (PALDH): 0.29 ± 0.04 mM
Ki (ECLDH [2]): 20 ± 2 mM

O=P(O)(O)OC[C@H]1OC(O)(COP(=O)(O)O)[C@@H](O)[C@@H]1O (stereo partly shown) [FBP]
EC50 (ECLDH [3]): 1.3 mM

B1: NAD-dependent D-lactate dehydrogenase from Fusobacterium nucleatum subsp. nucleatum (enzyme, UniProt Q8RG11 1-335, looked up)
chain: MQKTKIIFFDIKDYDKEFFKKYGADYNFEMTFLKVRLTEETANLTKGYDVVCGFANDNINKETIDIMAENGIKLLAMRCAGFNNVSLKDVNERFKVVRVPAYSPHAIAEYTVGLILAVNRKINKAYVRTREGNFSINGLMGIDLYEKTAGIIGTGKIGQILIKILRGFDMKVIAYDLFPNQKVADELGFEYVSLDELYANSDIISLNCPLTKDTKYMINRRSMLKMKDGVILVNTGRGMLIDSADLVEALKDKKIGAVALDVYEEEENYFFEDKSTQVIEDDILGRLLSFYNVLITSHQAYFTKEAVGAITVTTLNNIKDFVEGRPLVNEVPQNQ
notes: FN0511 protein (FNLDH), NAD-dependent D-lactate dehydrogenase of Fusobacterium nucleatum subsp. nucleatum JCM14847 (=ATCC25586); gene amplified from genomic DNA with primers from the start codon to the stop codon; theoretical molecular weight printed as 40.0 kDa; No removal of the vector's tag is described; the printed theoretical mass (40.0 kDa) may include the leader of pCold I (surmise); The …
stoichiometry N [4]: 4
K0.5 (purified protein [5]): 0.68 (0.01) mM
kcat (purified protein [5]): 140 s⁻¹
kcat/Km (purified protein [5]): 200000 M⁻¹ s⁻¹
K0.5 (purified protein [6]): 0.34 (0.007) mM
kcat (purified protein [6]): 80 s⁻¹
kcat/Km (purified protein [6]): 230000 M⁻¹ s⁻¹
K0.5 (purified protein [7]): 2.5 (0.09) mM
kcat (purified protein [7]): 80 s⁻¹
kcat/Km (purified protein [7]): 31000 M⁻¹ s⁻¹
K0.5 (purified protein [8]): 0.022 (0.0005) mM
kcat (purified protein [8]): 98 s⁻¹
kcat/Km (purified protein [8]): 4.4e+06 M⁻¹ s⁻¹
K0.5 (purified protein [9]): 0.31 (0.006) mM
kcat (purified protein [9]): 140 s⁻¹
kcat/Km (purified protein [9]): 440000 M⁻¹ s⁻¹

B2: NAD-dependent D-lactate dehydrogenase from Escherichia coli (enzyme, E. coli BL21(DE3), UniProt P52643 1-329, looked up)
chain: MKLAVYSTKQYDKKYLQQVNESFGFELEFFDFLLTEKTAKTANGCEAVCIFVNDDGSRPVLEELKKHGVKYIALRCAGFNNVDLDAAKELGLKVVRVPAYDPEAVAEHAIGMMMTLNRRIHRAYQRTRDANFSLEGLTGFTMYGKTAGVIGTGKIGVAMLRILKGFGMRLLAFDPYPSAAALELGVEYVDLPTLFSESDVISLHCPLTPENYHLLNEAAFEQMKNGVMIVNTSRGALIDSQAAIEALKNQKIGSLGMDVYENERDLFFEDKSNDVIQDDVFRRLSACHNVLFTGHQAFLTAEALTSISQTTLQNLSNLEKGETCPNELV
notes: gene amplified from genomic DNA with primers from the start codon to the stop codon; theoretical molecular weight printed as 38.5 kDa; No removal of the vector's tag is described; the printed theoretical mass (38.5 kDa) may include the leader of pCold I (surmise); A second peak at the position of an octamer was seen and put down as a likely artefact of overexpression; also called ECLDH; …
stoichiometry N [4]: 4
K0.5 (purified protein [10]): 2.6 (0.09) mM
kcat (purified protein [10]): 410 s⁻¹
kcat/Km (purified protein [10]): 160000 M⁻¹ s⁻¹
K0.5 (purified protein [11]): 0.055 (0.004) mM
kcat (purified protein [11]): 640 s⁻¹
kcat/Km (purified protein [11]): 1.2e+07 M⁻¹ s⁻¹
K0.5 (purified protein [12]): 20 (2) mM
kcat (purified protein [12]): 100 s⁻¹
kcat/Km (purified protein [12]): 5300 M⁻¹ s⁻¹
K0.5 (purified protein [13]): 12 (0.3) mM
kcat (purified protein [13]): 50 s⁻¹
kcat/Km (purified protein [13]): 4200 M⁻¹ s⁻¹

B3: PALDH (Pseudomonas aeruginosa PAO1) (protein)
chain: MRILFFSSQAYDSESFQASNHRHGFELHFQQAHLQADTAVLAQGFEVVCAFVNDDLSRPVLERLAAGGTRLVALRSAGYNHVDLAAAEALGLPVVHVPAYSPHAVAEHAVGLILTLNRRLHRAYNRTREGDFSLHGLTGFDLHGKRVGVIGTGQIGETFARIMAGFGCELLAYDPYPNPRIQALGGRYLALDALLAESDIVSLHCPLTADTRHLIDAQRLATMKPGAMLINTGRGALVNAAALIEALKSGQLGYLGLDVYEEEADIFFEDRSDQPLQDDVLARLLSFPNVVVTAHQAFLTREALAAIADTTLDNIAAWQDGTPRNRVRA
K0.5 (purified protein [14]): 0.10 (0.009) mM
kcat (purified protein [14]): 400 s⁻¹
kcat/Km (purified protein [14]): 4e+06 M⁻¹ s⁻¹
K0.5 (purified protein [15]): 1.7 (0.06) mM
kcat (purified protein [15]): 410 s⁻¹
kcat/Km (purified protein [15]): 230000 M⁻¹ s⁻¹
K0.5 (purified protein [16]): 0.019 (0.0005) mM
kcat (purified protein [16]): 310 s⁻¹
kcat/Km (purified protein [16]): 1.7e+07 M⁻¹ s⁻¹
K0.5 (purified protein [17]): 0.64 (0.01) mM
kcat (purified protein [17]): 100 s⁻¹
kcat/Km (purified protein [17]): 150000 M⁻¹ s⁻¹
K0.5 (purified protein [18]): 3.0 (0.2) mM
kcat (purified protein [18]): 420 s⁻¹
kcat/Km (purified protein [18]): 140000 M⁻¹ s⁻¹
